Measured values as given in patent US20060040325A1 (AstraZeneca / MedImmune, published 2006).
One block for each binder: values may come before it.

Columns and labels:
[1] = molecular target: T1, FcγRIIIA-streptavidin fusion protein (tetramer) (human; Streptomyces avidinii, UniProt P08637 17-208); assay: ELISA: antibody captured on protein A/G, FcγRIIIA tetramer, biotin-HRP, OD450
T1 construct: extracellular domain; also called FcγRIIIA tetramer; Fcγtetramer; not shown: streptavidin, amplified with primers SA1/SA2 from genomic DNA of Streptomyces avidinii
T1 sequence (P08637 17-208 limits assumed): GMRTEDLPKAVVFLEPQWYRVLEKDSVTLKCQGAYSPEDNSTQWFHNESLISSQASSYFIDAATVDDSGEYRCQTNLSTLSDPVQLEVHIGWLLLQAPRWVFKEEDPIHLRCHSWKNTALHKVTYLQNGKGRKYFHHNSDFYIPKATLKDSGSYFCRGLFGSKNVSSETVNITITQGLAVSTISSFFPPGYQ
Description: ELISA for FcγRIIIA Tetramer Binding: Microtiter plates were coated with protein A/G (PIERCE) solution (0.25 μg/ml) and incubated at 4° C. overnight. The plates were then washed with PB S/0.1% Tween and any remaining binding sites were blocked with 1% BSA. 50 μl of test antibody at 1:1 dilution (from 5000 ng/ml to 4.9 ng/ml), was added to each well and inclubated for 60 min at 37° C. 50 μl of 1:500 dilution of the Fcγtetramer was added to each well and incubated for 60 min at 37° C. followed by washing. 50 μl of 1:1000 dilution of biotin-conjugated HRP (PIERCE) was added to each well and incubated for 30 min at 37° C. Detection was carried out by adding 30 μl of tetramethylbenzidine (TMB) substrate (Pierce) followed by neutralization with 30 μl of 0.2 M H₂SO₄. The absorbance was read at 450 nm.

[2] = molecular target: T2, FcγRIIIA (soluble receptor used as analyte in the BIAcore runs) (human, UniProt P08637 17-208); assay: SPR (BIAcore 3000), IgG amine-coupled to CM5, soluble FcγRIIIA injected; Scatchard plot of Req; Run 3
T2 construct: extracellular domain; The BIAcore methods only say 'FcγRIIIA'; also called FcγIIIA
T2 sequence (P08637 17-208): as the sequence (P08637 17-208 limits assumed) above
Description: (§1) FcγRIIIA was serially diluted in 0.01 M HEPES pH 7.4 containing 0.15 M NaCl, 3 mM EDTA and 0.005% P20, at concentrations ranging from 16 uM down to 7.8 nM. Duplicate injections of each concentration were made. All binding experiments were performed at 25° C., and at a flow rate of 10 uL/min. Binding was monitored for 25 min. Following each injection of FcγRIIIA, the IgG surfaces were regenerated with a 30 sec. pulse of 5 mM HCl. FcγRIIIA was also passed over a blank reference cell which is connected, in series, to the IgG-containing flow cells. The steady-state binding curves were also corrected for injection artifacts by subtraction of buffer injections. This doubly-corrected data was then fit to a steady-state isotherm provided by the instrument manufacturer (Pharmacia Biosensor, Uppsala, Sweden) to derive the respective equilibrium binding constants (KD). Separately, a Scatchard plot of the Req data from each IgG surface was constructed to confirm the results of the binding isotherms.

[3] = molecular target: T2, FcγRIIIA (soluble receptor used as …); assay: SPR (BIAcore 3000), IgG amine-coupled to CM5, soluble FcγRIIIA injected; steady-state isotherm; Run 3
Description: as §1

[4] = molecular target: T3, human C1q complement protein (human, UniProt P02745 23-245; P02746 28-253; P02747 29-245); assay: ELISA: antibody coated on the plate, human C1q, anti-C1q antibody, HRP conjugate, OD450
T3 construct: Bought protein ('Quidal, SanDiego')
T3 sequence (P02745 23-245 limits assumed, chain 1 of 3): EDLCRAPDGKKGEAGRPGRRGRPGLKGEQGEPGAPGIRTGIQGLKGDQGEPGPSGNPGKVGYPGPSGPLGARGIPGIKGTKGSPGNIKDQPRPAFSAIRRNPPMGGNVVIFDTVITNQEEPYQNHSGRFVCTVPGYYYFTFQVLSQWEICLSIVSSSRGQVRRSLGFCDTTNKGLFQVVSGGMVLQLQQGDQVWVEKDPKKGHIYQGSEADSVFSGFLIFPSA
T3 sequence (P02746 28-253 limits assumed, chain 2 of 3): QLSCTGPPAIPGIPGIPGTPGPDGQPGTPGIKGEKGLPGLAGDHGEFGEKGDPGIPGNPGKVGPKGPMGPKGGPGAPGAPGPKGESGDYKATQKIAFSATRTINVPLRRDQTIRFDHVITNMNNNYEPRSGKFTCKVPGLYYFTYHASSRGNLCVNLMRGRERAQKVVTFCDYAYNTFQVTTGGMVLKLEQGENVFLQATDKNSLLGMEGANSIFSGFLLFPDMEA
T3 sequence (P02747 29-245 limits assumed, chain 3 of 3): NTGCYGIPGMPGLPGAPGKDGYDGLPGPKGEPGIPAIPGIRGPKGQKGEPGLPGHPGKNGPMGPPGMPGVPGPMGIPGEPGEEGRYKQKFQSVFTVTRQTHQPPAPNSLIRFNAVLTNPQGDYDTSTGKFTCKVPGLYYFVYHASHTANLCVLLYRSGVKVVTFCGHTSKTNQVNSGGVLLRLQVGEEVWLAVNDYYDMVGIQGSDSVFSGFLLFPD
Description: ELISA for C1q Binding: Microtiter plates were coated with 50 μl of test antibody at concentration range from 20 μg/ml to […] and incubated at 4° C. overnight. The plate was then blocked with 5% nonfat powdered milk for 60 min at 37° C. 50 μl of 5 μg/ml human C1q complement protein (Quidal, SanDiego) was added to each well and inclubated for 60 min at 37° C. 50 μl of 1:1000 dilution of anti-complement C1q antibody (Biodesign) was added to each well and incubated for 60 min at 37° C. 50 μl of 1:1000 dilution of donkey anti-sheep/goat antibody-conjugated HRP (PIERCE) was added to each well and incubated for 60 min at 37° C. Detection was carried out by adding 30 μl of tetramethylbenzidine (TMB) substrate (Pierce) followed by neutralization with 30 μl of 0.2 M H₂SO₄. The absorbance was read at 450 nm.

[5] = molecular target: T2, FcγRIIIA (soluble receptor used as …); assay: SPR (BIAcore 3000), Run 3; calculated from isotherm KD values against wild type 3F2
Description: as §1

EC50 (read off the curve) [1]: ~200 ng/mL | Kd [2]: 14200 nM | Kd [3]: 15600 nM | binding result [4]: binds
B1: 3F2 (wild type anti-EphA2 antibody, IgG1) (antibody)
heavy: not shown
VL: AIQLTQSPSSLSASVGDRVTITCRASQSISNNLHWYLQKPGQSPQLLIYYGFQSISGVPSRFSGSGSGTDFTLTISSLQPEDFATYYCQQANSWPLTFGGGTKLEIK
notes: domain: IgG1 heavy chain constant region; 3F2 variable regions placed in the Vitaxin® IgG1 plasmid and made in NS0 cells; The light chain constant region is not described; also called 3F2-wt; 3F2-WT; copies: 2 + 2

EC50 (read off the curve) [1]: ~50 ng/mL | Kd [2]: 162 nM | Kd [3]: 158 nM | Fold increase over WT [5]: 99 fold | binding result [4]: binds
B2: 3F2-3M (3F2 Fc variant S239D/A330L/I332E, IgG1) (antibody, name in EU numbering)
heavy: EVQLVESGGGVVRPGGSLRLSCAASGFTVSDYSMNWVRQAPGKGLEWIGFIRNKANAYTTEYSASVKGRFTISRDDSKNTLYLQMNSLKTEDTAVYYCTTYPRYHAMDSWGQGTMVTVSSASTKGPSVFPLAPSSKSTSGGTAALGCLVKDYFPEPVTVSWNSGALTSGVHTFPAVLQSSGLYSLSSVVTVPSSSLGTQTYICNVNHKPSNTKVDKKVEPKSCDKTHTCPPCPAPELLGGPDVFLFPPKPKDTLMISRTPEVTCVVVDVSHEDPEVKFNWYVDGVEVHNAKTKPREEQYNSTYRVVSVLTVLHQDWLNGKEYKCKVSNKALPLPEEKTISKAKGQPREPQVYTLPPSRDELTKNQVSLTCLVKGFYPSDIAVEWESNGQPENNYKTTPPVLDSDGSFFLYSKLTVDKSRWQQGNVFSCSVMHEALHNHYTQKSLSLSPGK
VL: B1 VL
notes: domain: IgG1 heavy chain constant region; Made in NS0 cells; The light chain constant region is not described; also called 3F2 S239D/A330L/I332E; 3M Fc variant; copies: 2 + 2

EC50 (read off the curve) [1]: ~50 ng/mL | Kd [2]: 1680 nM | Kd [3]: 1770 nM | Fold increase over WT [5]: 8.8 fold | binding result [4]: binds
B3: 3F2-1M (3F2 Fc variant I332E, IgG1) (antibody, name in EU numbering)
heavy: not shown
VL: B1 VL
notes: domain: IgG1 heavy chain constant region; Made in NS0 cells; The light chain constant region is not described; also called 3F2 I332E; 3F2-IM; copies: 2 + 2
